Measured values reported in PMC8386010, “Nanobody-armed T cells endow CAR-T cells with cytotoxicity against lymphoma cells” (Cancer Cell International, 2021).
No end group written: not given here.

Tests used:
human CD19 antigen [1] = biological target: T1, human CD19 antigen (Homo sapiens, UniProt P15391)
human CD19 antigen [2] = biological target: T1, human CD19 antigen; experiment: SPR; Biacore T200; nanobody captured by immobilised mouse anti-human IgG (Fc) antibody; human CD19/CD20 antigen injected in 7 serial twofold dilutions from 10 µg/ml, 30 µl/min, association 120 s, dissociation 300 s; settings: both partners purified
anti-CD20 Nb1 = biological target: T2, anti-CD20 Nb1 (Bactrian camel); experiment: as above; settings: both partners purified
T2 construct: nanobody selected from a Bactrian camel naive phage display library; In SPR it was captured by an anti-human IgG (Fc) antibody; also called anti-CD20 nanobody; source: cloned into the pCZN1 vector, expressed and purified

T1 sequence (P15391 20-291): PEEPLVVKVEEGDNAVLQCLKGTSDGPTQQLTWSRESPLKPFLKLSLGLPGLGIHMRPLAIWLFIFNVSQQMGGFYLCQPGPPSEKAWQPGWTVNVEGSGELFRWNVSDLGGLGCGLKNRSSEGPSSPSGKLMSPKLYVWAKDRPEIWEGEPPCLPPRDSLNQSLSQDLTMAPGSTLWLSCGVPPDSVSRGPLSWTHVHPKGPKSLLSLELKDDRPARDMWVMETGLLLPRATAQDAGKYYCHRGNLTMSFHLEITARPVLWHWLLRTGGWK

Binder	binding result (human CD19 antigen [1])	further results
Anti-CD19 Nb2 (VHH) VHH: QVQLQESGGGSVQTGGSLRLSCAASGFSYTGHHMGWFRQVAAQEREWVGSIYTDPGTTFYADSVKGRFTISQDVAKKMVYLQMNNLKPTDTGIYFCAAEPVADGPPLMSRDRCFGSWGQGTQVTVSS	binds	
Anti-CD19 Nb3 (VHH) VHH: QVQLQESGGGSVQGGGSLRLSCAVSGATYMIQYMGWFRQAPGKEREGVAVIHSDDRTTYADSVKGRFTISQDNANHTLYLQMNSLKPEDTGMYVCASSLSKGGYYRGDLVPGQFTYWGRGTQVTVSS	binds	
anti-CD19 Nb1 (VHH, nanobody selected from a Bactrian camel naive phage display library; In SPR it was captured by an anti-human IgG (Fc) antibody; also called anti-CD19 nanobody; source: cloned into the pCZN1 vector, expressed and purified) VHH: QVQLQESGGGSVQAGGSLRLSCAVRRPTDSRNCMAWFRQAPGEQREAVAGIDIYRTTGYAESVKGRFTISQDNAKNTLFLQMNSLKPEDSGTYYCAAARPCKYGSEWRRSASDFLYWGQGTQVTVSS		Kd (human CD19 antigen [2]): 290 nM
KISHFLKMESLNFIRAHTPYINIYNCEPANPSEKNSPSTQYCYSIQS (natural protein, cysteine pairing not given here; also: biotinylated for panning, position not given here) [human CD20 antigen]		Kd (anti-CD20 Nb1): 147 nM
